From patent US20030224390A1, “Method of identifying conformation-sensitive binding peptides and uses thereof” (Karo Bio AB, priority 2000, published 2003)

Key:
estrogen receptor (ER) α = target: T1, estrogen receptor (ER) α (Homo sapiens, UniProt P03372); assay: Yeast two-hybrid screening of LXXLL peptide library, ligand induced β-galactosidase activity (FIG. 1, Table 501); assay type: cell-based; conditions: with and without estradiol
T1 construct: expressed in transfected cells; host or cells: Saccharomyces cerevisiae PJ69-α
T1 sequence (P03372 1-595): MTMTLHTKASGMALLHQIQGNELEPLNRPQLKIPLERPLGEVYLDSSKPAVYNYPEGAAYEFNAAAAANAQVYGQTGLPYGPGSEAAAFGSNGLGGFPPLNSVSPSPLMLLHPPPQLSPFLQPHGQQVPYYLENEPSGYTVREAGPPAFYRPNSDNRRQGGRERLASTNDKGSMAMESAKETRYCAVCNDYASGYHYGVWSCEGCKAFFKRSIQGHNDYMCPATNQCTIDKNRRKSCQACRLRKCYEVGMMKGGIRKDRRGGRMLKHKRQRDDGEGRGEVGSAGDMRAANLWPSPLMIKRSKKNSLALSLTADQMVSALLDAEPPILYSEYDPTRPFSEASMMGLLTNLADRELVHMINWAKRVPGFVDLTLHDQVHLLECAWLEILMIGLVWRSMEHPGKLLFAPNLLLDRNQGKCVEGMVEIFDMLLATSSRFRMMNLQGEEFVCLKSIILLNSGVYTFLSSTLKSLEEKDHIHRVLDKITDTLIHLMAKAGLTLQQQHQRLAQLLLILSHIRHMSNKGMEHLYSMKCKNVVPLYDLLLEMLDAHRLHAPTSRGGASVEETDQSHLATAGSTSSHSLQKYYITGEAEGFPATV
Description: A directed peptide library (X5LXXLLX5, SEQ ID NO:264) containing the LXXLL motif (previously identified as common in peptides binding estrogen receptor) as a carboxy-terminal fusion to the Gal4 DNA binding domain was constructed with an overall complexity of […] independent peptides. The LXXLL motif library peptides were encoded by the degenerate DNA sequence (NNK)5TTA(NNK)2(TTA)2(NNK)5 (SEQ ID NO:265); TTA is the preferred Leu codon in yeast. NNK encodes a stop codon so a few of the peptides generated will be shorter than 15 a.a. The shortest interacting peptides will likely be 10-mers. This library was transformed into the Saccharomyces cerevisiae PJ69-α yeast strain expressing estrogen receptor (ER) α as a carboxy-terminal fusion to the Gal4 activation domain. […] Those colonies able to grow by inducing the integrated GAL4 driven HIS3 reporter were transferred into 0.25 ml of rich media in a 0.5 ml block.
Cells were pelleted by centrifugation, the media removed and the cells lysed with buffer containing 2.5% CHAPS (3-(3-Cholamidopropyl) dimethyl ammonio-1-propanesulfonate) detergent. A preliminary OD600 was determined to normalize β-galactosidase activity of each well with cell density. […] Yeast clones that generated a value equal to or greater than 0.5 were verified using the same method. Verified clones were then subjected to a final test of ligand induced β-galactosidase activity. […] Ten clones displaying the greatest ligand induced β-galactosidase activity were studied further.
Plasmids containing the peptides were isolated from the yeast cells and the amino acid sequences (Table 501) deduced by DNA sequencing of the library inserts. In Table 501, the underlined sequence is encoded by vector DNA, and the “*” represents the endogenous stop codon of the vector, and is downstream of the cloning site. Several peptides contain the vector-encoded LDLQPS (SEQ ID NO:266) sequence. B5H10 is believed to be the result of a double insert, with the second part being encoded by the complementary sequence. Peptides B1A1 and B1G8 were shorter than the other isolates because the clones encoding them carry a premature stop codon, which is inherent in the NNK library. Because of a frame shift, neither peptide B6A1 nor B3E2 contained the sequence encoded by vector DNA.

ERβ = ERβ (Homo sapiens, UniProt Q92731); assay: Phage ELISA fingerprint: peptide binding to immobilized ER β with modulator present (Table 14B)
Sequence of ERβ (Q92731 whole entry, species assumed, the tested form may be a part): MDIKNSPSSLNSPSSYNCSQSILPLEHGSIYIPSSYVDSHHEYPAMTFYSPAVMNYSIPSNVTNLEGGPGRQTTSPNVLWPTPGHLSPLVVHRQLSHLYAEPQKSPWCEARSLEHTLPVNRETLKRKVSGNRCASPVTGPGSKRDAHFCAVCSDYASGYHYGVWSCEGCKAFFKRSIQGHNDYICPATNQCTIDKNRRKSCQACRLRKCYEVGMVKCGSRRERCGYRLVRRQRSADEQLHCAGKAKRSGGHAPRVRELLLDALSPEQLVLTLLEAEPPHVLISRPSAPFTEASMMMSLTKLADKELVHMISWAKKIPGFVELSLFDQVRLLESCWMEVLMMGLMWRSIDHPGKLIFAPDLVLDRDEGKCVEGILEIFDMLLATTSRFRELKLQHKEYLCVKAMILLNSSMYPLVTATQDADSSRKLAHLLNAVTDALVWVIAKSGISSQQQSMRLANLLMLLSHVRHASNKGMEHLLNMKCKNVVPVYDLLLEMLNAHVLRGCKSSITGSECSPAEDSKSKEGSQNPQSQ

[1] = target: T2, Gal4 transcriptional activation domain (AD) fused in frame with AR (pGAD-C2) (yeast, UniProt P10275 1-920, limits assumed); assay: cell-based or functional assay
T2 sequence (looked up): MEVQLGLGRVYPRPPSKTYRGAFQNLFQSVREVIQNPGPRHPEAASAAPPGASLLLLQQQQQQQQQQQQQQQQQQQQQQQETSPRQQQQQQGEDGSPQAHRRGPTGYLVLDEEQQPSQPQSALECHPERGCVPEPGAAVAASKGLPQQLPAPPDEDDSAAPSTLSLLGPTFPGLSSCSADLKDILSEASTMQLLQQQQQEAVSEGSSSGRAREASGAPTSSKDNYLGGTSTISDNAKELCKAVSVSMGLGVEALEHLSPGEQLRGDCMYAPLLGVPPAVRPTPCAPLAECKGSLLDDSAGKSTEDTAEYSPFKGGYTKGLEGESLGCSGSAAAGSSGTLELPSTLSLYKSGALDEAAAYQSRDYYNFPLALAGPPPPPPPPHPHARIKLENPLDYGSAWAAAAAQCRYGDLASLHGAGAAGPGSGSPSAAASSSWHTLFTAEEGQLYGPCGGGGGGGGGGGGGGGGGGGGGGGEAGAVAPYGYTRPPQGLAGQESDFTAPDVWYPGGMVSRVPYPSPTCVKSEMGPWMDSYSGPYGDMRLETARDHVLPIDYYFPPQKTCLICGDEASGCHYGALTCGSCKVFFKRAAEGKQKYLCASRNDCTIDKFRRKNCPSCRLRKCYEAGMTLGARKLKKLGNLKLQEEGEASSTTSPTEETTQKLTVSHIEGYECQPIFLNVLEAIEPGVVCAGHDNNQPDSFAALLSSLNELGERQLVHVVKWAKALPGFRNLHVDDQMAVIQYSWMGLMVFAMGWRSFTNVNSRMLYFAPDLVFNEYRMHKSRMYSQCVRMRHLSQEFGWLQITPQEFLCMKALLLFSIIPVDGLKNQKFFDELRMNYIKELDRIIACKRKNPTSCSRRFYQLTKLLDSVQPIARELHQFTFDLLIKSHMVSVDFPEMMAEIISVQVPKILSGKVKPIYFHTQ

[2] = target: T2, Gal4 transcriptional activation domain …; assay: cell-based or functional assay; remark: listed apart in the source
[3] = target: ER β (immobilized, in vitro phage assays) (UniProt Q92731 1-530, limits assumed); assay: phage ELISA; ICI 182,780 1 µM
Sequence of ER β (immobilized, in vitro phage assays) (Q92731 whole entry): as the sequence (Q92731 whole entry, species assumed, the tested form may be a part) above

EFSPPSSLLALLLGGKSLEPLPIRYKNVKRQFTSNSRGSVDLQPS [B5H10]
Fold Induction (ligand induced β-galactosidase activity) (estrogen receptor (ER) α): 4.5

EFGGSVLLRELLCCYDALEPTTTR [B3E2]
Fold Induction (ligand induced β-galactosidase activity) (estrogen receptor (ER) α): 3

EFTSVSRLVTLLLQ* [B1G8]
Fold Induction (ligand induced β-galactosidase activity) (estrogen receptor (ER) α): 6

EFFRATHLLRLLRTDSALDLQPS* [B6F3]
Fold Induction (ligand induced β-galactosidase activity) (estrogen receptor (ER) α): 3

EFSGVPILHMLLMLPSSLDLQOPS* [B4F6]
Fold Induction (ligand induced β-galactosidase activity) (estrogen receptor (ER) α): 5

SSEACVGRWMLCEQLGVSR [12Bβ]
Class Specific Fingerprint on ERβ: peptide binding, Nafoxidine present (ERβ; nafoxidine (10 μM)): 5

EFCPVGLLVHLLMQ* [B1A1]
Fold Induction (ligand induced β-galactosidase activity) (estrogen receptor (ER) α): 11

SSNHQSSRLIELLSR [#4 ER./E2]
Class Specific Fingerprint on ERβ: peptide binding, 4-OH Tamoxifen present (ERβ; 4-OH tamoxifen (1 μM)): 0
Class Specific Fingerprint on ERβ: peptide binding, ICI 182,780 present (ERβ; ICI 182,780 (1 μM)): 0
Class Specific Fingerprint on ERβ: peptide binding, Clomiphene present (ERβ; clomiphene (10 μM)): 0
Class Specific Fingerprint on ERβ: peptide binding, Raloxifene present (ERβ; raloxifene (1 μM)): 0

EFFRLRRLDRLLQDSFLLDLQPS* [B2G1]
Fold Induction (ligand induced β-galactosidase activity) (estrogen receptor (ER) α): 12

EFTGSRLLLKLLRFPDSSTCSQA [B6A1]
Fold Induction (ligand induced β-galactosidase activity) (estrogen receptor (ER) α): 3.5

EFGCSAILRYLLRSPRDLDLQPS* [B5A2]
Fold Induction (ligand induced β-galactosidase activity) (estrogen receptor (ER) α): 2.5

B1: M2H3 (peptide)
chain: MKLLSSIEQACDICRLKKLKCSKEKPKCAKCLKNNWECRYSPKTKRSPLTRAHLTEVESRLERLEQLFLLIFPREDLDMILKMDSLQDIKALLTGLFVQDNVNKDAVTDRLASVETDMPLTLRQHRISATSSSEESSNKGQRQLTVSEFRQSFVSEILGGGWLPLDLQPS
Fold induction, yeast two-hybrid [1]: 10 fold
β-galactosidase activity, yeast two-hybrid; CPA [2]: 8.59
β-galactosidase activity, yeast two-hybrid; DHT [2]: 24.1
β-galactosidase activity, yeast two-hybrid; No Lig [2]: 2.53
β-galactosidase activity, yeast two-hybrid; RU [2]: 6.8

B2: M4D1 (peptide)
chain: MKLLSSIEQACDICRLKKLKCSKEKPKCAKCLKNNWECRYSPKTKRSPLTRAHLTEVESRLERLEQLFLLIFPREDLDMILKMDSLQDIKALLTGLFVQDNVNKDAVTDRLASVETDMPLTLRQHRISATSSSEESSNKGQRQLTVSEFRFPFHEMVREWESMGLERVRYAEP
Fold induction, yeast two-hybrid [1]: > 2 fold
β-galactosidase activity, yeast two-hybrid; CPA [2]: -0.0396
β-galactosidase activity, yeast two-hybrid; DHT [2]: 0.395
β-galactosidase activity, yeast two-hybrid; No Lig [2]: 0
β-galactosidase activity, yeast two-hybrid; RU [2]: 0.1

B3: β II (B2) (peptide)
peptide: SSLDLSQFPMTASFLRESR
notes: also called 35Eβ
phage ELISA grade [3]: 0

B4: α/β V (AB5) (peptide)
peptide: SSPGSREWFKDMLSR
notes: also called 14Tβ; 14T-β
phage ELISA grade [3]: 0

B5: B8A10 (peptide)
chain: MKLLSSIEQACDICRLKKLKCSKEKPKCAKCLKNNWECRYSPKTKRSPLTRAHLTEVESRLERLEQLFLLIFPREDLDMILKMDSLQDIKALLTGLFVQDNVNKDAVTDRLASVETDMPLTLRQHRISATSSSEESSNKGQRQLTVSEFVNWDAVVPWSELVALLDLQPS
Fold induction, yeast two-hybrid [1]: 1 fold
β-galactosidase activity, yeast two-hybrid; CPA [2]: 0.395
β-galactosidase activity, yeast two-hybrid; DHT [2]: 0.616
β-galactosidase activity, yeast two-hybrid; No Lig [2]: 0.875
β-galactosidase activity, yeast two-hybrid; RU [2]: 0.4

B6: B2A7 (peptide)
chain: MKLLSSIEQACDICRLKKLKCSKEKPKCAKCLKNNWECRYSPKTKRSPLTRAHLTEVESRLERLEQLFLLIFPREDLDMILKMDSLQDIKALLTGLFVQDNVNKDAVTDRLASVETDMPLTLRQHRISATSSSEESSNKGQRQLTVSEFPELLAMTRWGRHAALLEPQRLPPPRTTTQPQTEFERMFFFTRPMRTTGLLDLQPS
Fold induction, yeast two-hybrid [1]: 5 fold
β-galactosidase activity, yeast two-hybrid; CPA [2]: 0.292
β-galactosidase activity, yeast two-hybrid; DHT [2]: 1.72
β-galactosidase activity, yeast two-hybrid; No Lig [2]: 0.371
β-galactosidase activity, yeast two-hybrid; RU [2]: 0.5
